Results on 3 molecules are retold here after paper PMC12362098, “Dimerization of Cdc13 is essential for dynamic DNA exchange on telomeric DNA” (The Journal of Biological Chemistry, 2025).

The target of data set [1] is T1, Cdc13-L91R (Saccharomyces cerevisiae, UniProt P32797 1-924, L91R).
T1 sequence: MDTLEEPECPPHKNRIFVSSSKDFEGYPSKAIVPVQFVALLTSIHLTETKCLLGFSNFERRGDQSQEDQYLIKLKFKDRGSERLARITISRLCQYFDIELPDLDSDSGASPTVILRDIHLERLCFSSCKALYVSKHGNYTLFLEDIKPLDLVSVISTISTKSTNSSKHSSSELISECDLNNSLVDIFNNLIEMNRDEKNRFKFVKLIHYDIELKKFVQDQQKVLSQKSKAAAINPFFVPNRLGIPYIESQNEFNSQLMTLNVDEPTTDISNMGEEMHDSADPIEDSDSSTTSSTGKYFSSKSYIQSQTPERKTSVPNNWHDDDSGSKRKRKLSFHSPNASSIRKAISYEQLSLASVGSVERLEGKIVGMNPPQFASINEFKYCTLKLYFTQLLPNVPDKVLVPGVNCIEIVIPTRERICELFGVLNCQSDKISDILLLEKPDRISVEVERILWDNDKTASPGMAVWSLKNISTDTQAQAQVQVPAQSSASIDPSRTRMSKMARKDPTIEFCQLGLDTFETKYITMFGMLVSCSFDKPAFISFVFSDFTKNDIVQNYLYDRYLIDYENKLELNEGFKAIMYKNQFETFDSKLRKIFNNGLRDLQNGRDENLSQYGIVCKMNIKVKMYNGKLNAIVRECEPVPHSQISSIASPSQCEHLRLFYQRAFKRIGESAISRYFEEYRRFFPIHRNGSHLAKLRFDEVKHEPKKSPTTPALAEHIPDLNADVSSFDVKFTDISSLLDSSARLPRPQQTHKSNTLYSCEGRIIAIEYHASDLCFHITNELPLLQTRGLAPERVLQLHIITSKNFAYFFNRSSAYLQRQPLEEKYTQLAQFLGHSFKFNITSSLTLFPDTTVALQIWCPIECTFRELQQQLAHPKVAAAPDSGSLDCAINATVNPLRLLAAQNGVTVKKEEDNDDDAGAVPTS
The data set can be described thus: competition EMSA (DDE assay); EC50 for displacing 2 nM prebound IR800-Tel30G; 3.75 nM monomer; 30 C; 25 mM HEPES pH 8.0, 50 mM NaOAc, 150 mM NaCl, 7.5 mM MgCl2 (1x DNA-binding buffer); DDE incubation 30 C, 8% native gel; mass photometry at room temperature after 30 C incubation; BLI buffer details not in material. The conditions noted are these: protein: recombinant; label: 5' IRDye700.

Data set [2] concerns the target T2, Cdc13 WT (Saccharomyces cerevisiae, UniProt P32797 1-924).
T2 sequence: T1 sequence with R91L
Description: competition EMSA (DDE assay); EC50 for displacing 2 nM prebound IR800-Tel30G; 3.75 nM dimer; 30 C; value introduced 'as reported (9)', assay also run here; 25 mM HEPES pH 8.0, 50 mM NaOAc, 150 mM NaCl, 7.5 mM MgCl2 (1x DNA-binding buffer); DDE incubation 30 C, 8% native gel; mass photometry at room temperature after 30 C incubation; BLI buffer details not in material. The settings on record: protein: recombinant; chain copies: 2; label: 5' IRDye700. (In general: Mobility shift assays separate free from complexed probe on a gel.)

The target in data set [3] is T2, Cdc13 WT. Description: mass photometry; one and two dimers per ssDNA; binding buffer; 25 mM HEPES pH 8.0, 50 mM NaOAc, 150 mM NaCl, 7.5 mM MgCl2 (1x DNA-binding buffer); DDE incubation 30 C, 8% native gel; mass photometry at room temperature after 30 C incubation; BLI buffer details not in material. The settings on record: protein: recombinant; chain copies: 2.
Data set [4] has as its target T1, Cdc13-L91R. Description: mass photometry; small population with two monomers per ssDNA; binding buffer; 25 mM HEPES pH 8.0, 50 mM NaOAc, 150 mM NaCl, 7.5 mM MgCl2 (1x DNA-binding buffer); DDE incubation 30 C, 8% native gel; mass photometry at room temperature after 30 C incubation; BLI buffer details not in material. The conditions noted are these: protein: recombinant.

Data set [5] concerns the molecule itself. The data set can be described thus: mass photometry; Cdc13 alone diluted in PBS, 11.25 nM protein, room temperature.

Residue numbers refer to the chain shown, from its start.

By IC50 is commonly meant the concentration that gives 50% inhibition. In the case of CGCCATGCTGATCCGTGTGGTGTGTGTGGG (ssDNA) [IR700-Tel30G], the IC50 with Cdc13-L91R [1] was determined as 31.6 nM; with Cdc13 WT [2], 0.89 nM.
On to GTGTGGGTGTGGTGTGGGTGTGGTGTGGGTGTGTGGGTGTGGTGTGGGTG (ssDNA) [Tel50G], for which the binding result with Cdc13 WT [3] and in the data set with Cdc13-L91R [4] was “binds” each time.

B1: Cdc13 (wild type, recombinant) (natural protein, S. cerevisiae, UniProt P32797 1-924, looked up)
chain: T1 sequence with R91L
notes: called full-length WT Cdc13 in the text; The vector encodes a 5'-SUMO-His6 tag and a 3'-FLAG tag for purification; The monomer mass seen was ~105 kDa; also called WT Cdc13
The term stoichiometry N denotes a count of units in the complex or per binding partner. As to B1, the “stoichiometry N” value in data set [5] is 2.
